This note sets out measurements from US20180142032A1 (Sanofi, published 2018).

One experiment has as its target T1, cLAMP1::histag (cynomolgus monkey, UniProt P11279 29-380 (human entry)).
T1 construct: extracellular domain with C-terminal tag that includes 6 His; also called cynomolgus LAMP1 (27-380); cynomolgus monkey LAMP1 protein
T1 chain: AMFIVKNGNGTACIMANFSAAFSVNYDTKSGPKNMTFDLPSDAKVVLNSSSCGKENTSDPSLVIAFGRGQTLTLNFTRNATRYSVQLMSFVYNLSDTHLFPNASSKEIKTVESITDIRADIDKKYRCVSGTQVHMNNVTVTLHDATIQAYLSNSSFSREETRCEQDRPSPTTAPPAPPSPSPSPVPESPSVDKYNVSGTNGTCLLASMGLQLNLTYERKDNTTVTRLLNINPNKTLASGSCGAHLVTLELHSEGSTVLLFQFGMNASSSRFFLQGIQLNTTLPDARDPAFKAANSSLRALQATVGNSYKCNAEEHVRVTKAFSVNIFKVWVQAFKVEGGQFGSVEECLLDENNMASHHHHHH
The experiment can be described thus: ELISA on coated recombinant LAMP1 extracellular domain, detected with anti-mouse IgG-HRP; antibody concentration not given. From the text:
The antibody binding was visualized by adding TMB-H₂O₂ buffer and read at a wavelength of 450 nm.
On the technique in general: In an ELISA, binding on a coated surface is turned into a signal by an enzyme label.

A further experiment has as its target T2, hLAMP1_ΔGYQTI (human, UniProt P11279 29-412).
T2 construct: also called pXL5626
T2 sequence: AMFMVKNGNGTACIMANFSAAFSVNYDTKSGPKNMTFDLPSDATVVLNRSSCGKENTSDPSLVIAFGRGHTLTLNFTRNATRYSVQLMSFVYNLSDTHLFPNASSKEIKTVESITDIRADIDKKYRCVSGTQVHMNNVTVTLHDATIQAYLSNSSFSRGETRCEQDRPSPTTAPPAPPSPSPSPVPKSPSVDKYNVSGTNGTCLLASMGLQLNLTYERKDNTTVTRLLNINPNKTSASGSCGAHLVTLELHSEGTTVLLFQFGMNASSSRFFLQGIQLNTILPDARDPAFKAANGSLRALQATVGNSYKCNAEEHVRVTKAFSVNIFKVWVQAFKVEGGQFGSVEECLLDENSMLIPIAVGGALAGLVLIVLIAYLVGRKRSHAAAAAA
The experiment can be described thus: flow cytometry, transfected 293-F cells, experiment 2. On the technique in general: A flow cytometer gives signals particle by particle.

For a further experiment, the target named is T3, mLAMP1_hseq11_ΔGYQTI (mouse; human, UniProt P11438 25-369).
T3 construct: on cells; numbering read as for pXL6041; also called pXL6048; not shown: murine transmembrane domain and cytoplasmic tail with GYQTI replaced by 5 Ala
T3 chain: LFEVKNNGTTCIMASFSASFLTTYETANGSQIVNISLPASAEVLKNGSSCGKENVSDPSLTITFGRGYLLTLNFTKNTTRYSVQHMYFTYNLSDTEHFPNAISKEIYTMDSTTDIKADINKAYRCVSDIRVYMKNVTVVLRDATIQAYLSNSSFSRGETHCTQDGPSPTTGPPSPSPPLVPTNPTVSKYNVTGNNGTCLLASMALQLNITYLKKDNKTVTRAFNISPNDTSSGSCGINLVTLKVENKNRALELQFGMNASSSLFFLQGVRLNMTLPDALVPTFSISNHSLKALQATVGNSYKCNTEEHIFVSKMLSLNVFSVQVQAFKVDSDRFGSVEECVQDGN
The description is as above.

Another experiment addresses T4, mLAMP1_hseq6_ΔGYQTI (mouse; human, UniProt P11438 25-369).
T4 construct: on cells; numbering read as for pXL6041; also called pXL6047; not shown: murine transmembrane domain and cytoplasmic tail with GYQTI replaced by 5 Ala
T4 chain: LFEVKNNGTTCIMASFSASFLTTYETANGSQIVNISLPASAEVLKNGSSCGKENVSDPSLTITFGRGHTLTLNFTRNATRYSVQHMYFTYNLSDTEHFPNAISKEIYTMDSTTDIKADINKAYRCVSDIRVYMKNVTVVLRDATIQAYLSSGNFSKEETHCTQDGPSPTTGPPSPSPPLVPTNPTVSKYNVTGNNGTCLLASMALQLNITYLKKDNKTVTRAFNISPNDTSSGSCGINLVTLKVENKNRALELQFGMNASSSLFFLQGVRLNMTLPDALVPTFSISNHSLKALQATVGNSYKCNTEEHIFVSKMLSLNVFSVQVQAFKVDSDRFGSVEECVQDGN
The description is as above.

Another experiment concerns the target T5, mLAMP1_hseq6-11_ΔGYQTI (mouse; human, UniProt P11438 25-369).
T5 construct: on cells; also called pXL6041; not shown: murine transmembrane domain and cytoplasmic tail with GYQTI replaced by 5 Ala
T5 chain: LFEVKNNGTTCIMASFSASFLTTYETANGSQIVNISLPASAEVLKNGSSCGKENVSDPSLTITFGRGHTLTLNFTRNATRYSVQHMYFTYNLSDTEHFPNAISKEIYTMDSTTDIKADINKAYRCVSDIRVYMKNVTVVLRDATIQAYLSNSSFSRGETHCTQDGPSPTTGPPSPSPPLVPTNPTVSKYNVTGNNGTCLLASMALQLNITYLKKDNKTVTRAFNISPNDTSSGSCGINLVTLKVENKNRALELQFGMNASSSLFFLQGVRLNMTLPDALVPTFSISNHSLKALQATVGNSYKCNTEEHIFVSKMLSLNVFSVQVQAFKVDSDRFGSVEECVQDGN
The experiment is described as above.

The target of the next experiment is T6, mLAMP1_hseq6-9-11_ΔGYQTI (mouse; human, UniProt P11438 25-369).
T6 construct: on cells; numbering read as for pXL6041; also called pXL6092; not shown: murine transmembrane domain and cytoplasmic tail with GYQTI replaced by 5 Ala
T6 chain: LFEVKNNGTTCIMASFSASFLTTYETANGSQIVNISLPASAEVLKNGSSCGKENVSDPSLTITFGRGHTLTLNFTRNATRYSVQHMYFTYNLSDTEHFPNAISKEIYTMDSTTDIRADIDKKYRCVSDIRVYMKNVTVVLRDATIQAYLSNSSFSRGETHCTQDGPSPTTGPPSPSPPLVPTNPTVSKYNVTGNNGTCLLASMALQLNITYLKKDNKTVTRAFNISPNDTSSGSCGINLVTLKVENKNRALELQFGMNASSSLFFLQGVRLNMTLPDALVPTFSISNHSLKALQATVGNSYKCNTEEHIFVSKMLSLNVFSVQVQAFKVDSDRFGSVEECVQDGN
Described as above.

B1: MAb1 (antibody, mouse IgG2a, kappa)
heavy: QVQLQQSGAELVKPGASVKMSCKASGYIFTNYNIHWVKKSPGQGLEWIGAIYPGNGDAPYSQKFKDKATLTADKSSSTTYMQLSRLTSEDSAVYYCVRANWDVAFAYWGQGTLVSVSAAKTTAPSVYPLAPVCGDTTGSSVTLGCLVKGYFPEPVTLTWNSGSLSSGVHTFPAVLQSDLYTLSSSVTVTSSTWPSQSITCNVAHPASSTKVDKKIEPRGPTIKPCPPCKCPAPNLLGGPSVFIFPPKIKDVLMISLSPIVTCVVVDVSEDDPDVQISWFVNNVEVHTAQTQTHREDYNSTLRVVSALPIQHQDWMSGKEFKCKVNNKDLPAPIERTISKPKGSVRAPQVYVLPPPEEEMTKKQVTLTCMVTDFMPEDIYVEWTNNGKTELNYKNTEPVLDSDGSYFMYSKLRVEKKNWVERNSYSCSVVHEGLHNHHTTKSFSRTPGK
light: DIQMTQSPPSLSASLGGKVTITCKASQDIDRYMAWYQDKPGKGPRLLIHDTSTLQPGIPSRFSGSGSGRDYSFSISNLEPEDIATYYCLQYDNLWTFGGGTKLEIKRADAAPTVSIFPPSSEQLTSGGASVVCFLNNFYPKDINVKWKIDGSERQNGVLNSWTDQDSKDSTYSMSSTLTLTKDEYERHNSYTCEATHKTSTSPIVKSFNRNEC
notes: murine monoclonal IgG, kappa, from hybridoma; also called murine MAb1
B1: in the experiment with cLAMP1::histag, the binding result is recorded as “binds”. Moreover, the mean fluorescence with hLAMP1_ΔGYQTI amounted to 551; with mLAMP1_hseq11_ΔGYQTI, 2; with mLAMP1_hseq6_ΔGYQTI, 3; in the experiment with mLAMP1_hseq6-11_ΔGYQTI, 211; in the experiment with mLAMP1_hseq6-9-11_ΔGYQTI, 499.
